Test results published in US20240247080A1, “GLP1/GIP/NPY2 RECEPTOR TRIPLE AGONISTS” (Boehringer Ingelheim International GmbH, priority 2022, published 2024).
Positions count from the first letter of the chain named. Non-standard residues stand in square brackets, D forms with d. No end group written: not given here. Aib = CC(C)(N)C(=O)O

B1: Compound 112 (peptide)
peptide: YXEGTFTSDYSIXLEKQAQXAFVQWLIKGGPSSGASLRHYYNWLTRQRY
modifications: Aib at 2, 13, 20; K28 side chain: C20DA-gGlu-gGlu-gGlu-gGlu-gGlu-OEG-OEG; C-terminal NH2
B2: Compound 116 (peptide)
peptide: B1 peptide with K16E, Q24E
modifications: Aib at 2, 13, 20; K28 side chain: C20DA-gGlu-gGlu-gGlu-gGlu-gGlu-gGlu-eLys; C-terminal NH2
B3: Compound 128 (peptide)
peptide: B1 peptide with E15D, Q24E
modifications: Aib at 2, 13, 20; K28 side chain: C20DA-gGlu-gGlu-gGlu-gGlu-gGlu-gGlu-eLys; C-terminal NH2
B4: Compound 117 (peptide)
peptide: B1 peptide with Q24E, L37V
modifications: Aib at 2, 13, 20; K28 side chain: C20DA-gGlu-gGlu-gGlu-gGlu-gGlu-gGlu-eLys; C-terminal NH2
B5: Compound 118 (peptide)
peptide: B1 peptide with Q24E, L37X
modifications: Aib at 2, 13, 20, 37; K28 side chain: C20DA-gGlu-gGlu-gGlu-gGlu-gGlu-gGlu-eLys; C-terminal NH2
B6: Compound 124 (peptide)
peptide: B1 peptide with K16Q, Q24E
modifications: Aib at 2, 13, 20; K28 side chain: C20DA-gGlu-gGlu-gGlu-gGlu-Glu-gGlu-eLys; C-terminal NH2
B7: Compound 121 (peptide)
peptide: B1 peptide with K16S, Q24E
modifications: Aib at 2, 13, 20; K28 side chain: C20DA-gGlu-gGlu-gGlu-gGlu-gGlu-gGlu-eLys; C-terminal NH2
B8: Compound 120 (peptide)
peptide: B1 peptide with Q24E, G34P
modifications: Aib at 2, 13, 20; K28 side chain: C20DA-gGlu-gGlu-gGlu-gGlu-gGlu-OEG-OEG; C-terminal NH2
B9: Compound 127 (peptide)
peptide: B1 peptide with Q24E, A35E
modifications: Aib at 2, 13, 20; K28 side chain: C20DA-gGlu-gGlu-gGlu-gGlu-gGlu-gGlu-eLys; C-terminal NH2
B10: Compound 114 (peptide)
peptide: B1 peptide with S33E, A35V
modifications: Aib at 2, 13, 20; K28 side chain: C20DA-gGlu-gGlu-gGlu-gGlu-gGlu-gGlu-eLys; C-terminal NH2
B11: Compound 115 (peptide)
peptide: B1 peptide with S33E
modifications: Aib at 2, 13, 20; NMeQ at 47; K28 side chain: C20DA-gGlu-gGlu-gGlu-gGlu-gGlu-gGlu-eLys; C-terminal NH2
B12: Compound 123 (peptide)
peptide: B1 peptide with Q24E, P31Q
modifications: Aib at 2, 13, 20; K28 side chain: C20DA-gGlu-gGlu-gGlu-gGlu-gGlu-gGlu-eLys; C-terminal NH2
B13: Compound 125 (peptide)
peptide: B1 peptide with S33E
modifications: Aib at 2, 13, 20; NMeR at 48; K28 side chain: C20DA-gGlu-gGlu-gGlu-gGlu-gGlu-gGlu-eLys; C-terminal NH2
B14: Compound 119 (peptide)
peptide: B1 peptide with Q24E, H39X
modifications: Aib at 2, 13, 20; Tle at 39; K28 side chain: C20DA-gGlu-gGlu-gGlu-gGlu-gGlu-gGlu-eLys; C-terminal NH2
B15: Compound 122 (peptide)
peptide: B1 peptide with Q24E, S33E, G34P, A35E
modifications: Aib at 2, 13, 20; K28 side chain: C20DA-gGlu-gGlu-gGlu-gGlu-gGlu-gGlu-eLys; C-terminal NH2

Experiments:
Assay in all cases: cell-based or functional assay
human GIP receptor = target: T1, human GIP receptor (human, UniProt P48546 22-466)
T1 sequence (looked up): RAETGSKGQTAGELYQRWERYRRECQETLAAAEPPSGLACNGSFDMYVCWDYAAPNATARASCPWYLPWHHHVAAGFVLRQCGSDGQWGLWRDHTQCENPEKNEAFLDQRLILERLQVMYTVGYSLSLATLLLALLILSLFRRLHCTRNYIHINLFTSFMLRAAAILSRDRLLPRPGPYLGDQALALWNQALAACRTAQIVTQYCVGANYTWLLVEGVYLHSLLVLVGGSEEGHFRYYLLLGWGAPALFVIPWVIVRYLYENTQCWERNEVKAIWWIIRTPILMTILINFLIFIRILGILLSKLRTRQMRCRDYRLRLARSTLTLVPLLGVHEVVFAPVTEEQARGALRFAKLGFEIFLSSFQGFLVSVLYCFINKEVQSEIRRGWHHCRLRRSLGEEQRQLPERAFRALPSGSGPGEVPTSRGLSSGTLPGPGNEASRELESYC

[1] = target: T2, human neuropeptide Y2 receptor (human, UniProt P49146 1-381)
T2 sequence (looked up): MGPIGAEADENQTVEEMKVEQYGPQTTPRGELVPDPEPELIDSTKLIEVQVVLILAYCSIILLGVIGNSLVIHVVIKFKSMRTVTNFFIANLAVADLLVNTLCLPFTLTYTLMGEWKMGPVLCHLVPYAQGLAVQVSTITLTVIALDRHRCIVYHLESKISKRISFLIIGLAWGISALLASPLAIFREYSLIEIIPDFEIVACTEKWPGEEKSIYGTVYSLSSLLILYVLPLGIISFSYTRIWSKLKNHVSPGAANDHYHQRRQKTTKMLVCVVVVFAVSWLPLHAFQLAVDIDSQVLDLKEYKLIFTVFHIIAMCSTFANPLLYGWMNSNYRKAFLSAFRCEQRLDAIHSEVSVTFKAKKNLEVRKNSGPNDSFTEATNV

human GLP-1 receptor = human GLP-1 receptor (human, UniProt P43220 24-463)

Binder | EC50 CreLuc hGIPR 0.5% hP (human GIP receptor) [nM] | EC50 CreLuc hGIPR 100% hP (human GIP receptor) [nM] | EC50 CreLuc hNPY2R 0.5% hP [1] [nM] | EC50 CreLuc hNPY2R 100% hP [1] [nM] | EC50 CreLuc hGLP1R 0.5% hP (human GLP-1 receptor) [nM] | EC50 CreLuc hGLP1R 100% hP (human GLP-1 receptor) [nM]
Y[Aib]EGTFTSDLSI[Aib]LEKQAQ[Aib]AFVQWLIKGGPSEGASLRHYYNWLTRQRY-NH2 (not fully specified (residue 28)) [Compound 113] | 0.56 | 3.84 | 19.5 | 49.9 | 0.19 | 3.72
B1 | 0.19 | 0.83 | 8.05 | 27.6 | 0.06 | 1.7
B2 | 0.43 | 3.01 | 13.5 | 85.7 | 0.14 | 2.48
B3 | 0.11 | 0.9 | 24.8 | 51.9 | 0.4 | 3.7
B4 | 0.14 | 1.18 | 6.81 | 24.6 | 0.13 | 1.8
B5 | 0.06 | 0.55 | 6.2 | 26.2 | 0.05 | 0.84
B6 | 0.26 | 0.89 | 16.2 | 39.9 | 0.11 | 1.95
B7 | 0.65 | 7.29 | 23.8 | 88.9 | 0.18 | 7.09
B8 | 0.34 | 1.44 | 10.7 | 39.2 | 0.11 | 4.65
B9 | 0.05 | 0.84 | 13.2 | 66.3 | 0.04 | 1.6
B10 | 0.27 | 2.34 | 7.73 | 44.8 | 0.15 | 5.56
B11 | 0.51 | 1.89 | 7.8 | 30.6 | 0.12 | 3.45
B12 | 0.42 | 4.11 | 6.12 | 31.3 | 0.24 | 7.88
B13 | 0.28 | 1.72 | 30.9 | 99.3 | 0.23 | 2.85
B14 | 0.63 | 4.31 | 23.1 | 80.1 | 0.26 | 4.46
B15 | 0.08 | 1.53 | 26.3 | 78.9 | 0.22 | 4.97
Y[Aib]EGTFTSDYSI[Aib]LEKQAQ[Aib]AFVEWLIKGGPSSYASLRHYYNWLTRQRY-NH2 (not fully specified (residue 28)) [Compound 126] | 0.1 | 1.27 | 15.1 | 41.8 | 0.18 | 3.36
